B1: Plrx (wild type plasmoredoxin, recombinant) [P. falciparum] / PfSAHH (recombinant S-adenosyl-L-homocysteine hydrolase) [P. falciparum strain 3D7] (parent)
chain 1: MACQVDNPPKTYPNDKTAEYEKYANYMNYLYYYQNNELKKIDSSYFKDKYLGLFFGASWCKYCVTFIDSLNIFKKNFPNVEIIYIPFDRTYQEYQSFLKNTNFYALPFDNYLYICKKYQIKNLPSFMLITPNNNILVKDAAQLIKTDEYINNLKSLIKNYIIHPKTFQFNNRFFDLFRN
chain 2: MVENKSKVKDISLAPFGKMQMEISENEMPGLMRIREEYGKDQPLKNAKITGCLHMTVECALLIETLQKLGAQIRWCSCNIYSTADYAAAAVSTLENVTVFAWKNETLEEYWWCVESALTWGDGDDNGPDMIVDDGGDATLLVHKGVEYEKLYEEKNILPDPEKAKNEEERCFLTLLKNSILKNPKKWTNIAKKIIGVSEETTTGVLRLKKMDKQNELLFTAINVNDAVTKQKYDNVYGCRHSLPDGLMRATDFLISGKIVVICGYGDVGKGCASSMKGLGARVYITEIDPICAIQAVMEGFNVVTLDEIVDKGDFFITCTGNVDVIKLEHLLKMKNNAVVGNIGHFDDEIQVNELFNYKGIHIENVKPQVDRITLPNGNKIIVLARGRLLNLGCATGHPAFVMSFSFCNQTFAQLDLWQNKDTNKYENKVYLLPKHLDEKVALYHLKKLNASLTELDDNQCQFLGVNKSGPFKSNEYRY
B2: PfTrx1 (wild type thioredoxin) [P. falciparum] / PfSAHH (recombinant S-adenosyl-L-homocysteine hydrolase) [P. falciparum strain 3D7] (parent)
chain 1: MVKIVTSQAEFDSIISQNELVIVDFFAEWCGPCKRIAPFYEECSKTYTKMVFIKVDVDEVSEVTEKENITSMPTFKVYKNGSSVDTLLGANDSALKQLIEKYAA
chain 2: B1 chain 2

Variants of: B1
Assay: SPR
Conditions: with PfSAHH (recombinant S-adenosyl-L-homocysteine hydrolase) [P. falciparum strain 3D7]; Maximum response at end of analyte injection; SAHH on the sensor surface oxidized with 0.5 mM DTNB; 30 µl of analyte, 10 µM in HBS buffer; pre-injection …; parent: 99; read off a plot

| Variant | response (RD (normalized)) |
| --- | --- |
| chain 1 C63S | 28 |

Variants of: B2
Assay: SPR
Conditions: with PfSAHH (recombinant S-adenosyl-L-homocysteine hydrolase) [P. falciparum strain 3D7]; Maximum response at end of analyte injection; SAHH on the sensor surface oxidized with 0.5 mM DTNB; 30 µl of analyte, 10 µM in HBS buffer; pre-injection …; parent: 28; read off a plot

| Variant | response (RD (normalized)) |
| --- | --- |
| chain 1 C33S | 97 |
| chain 1 C30S C33S | 21 |

— publication PMC2660430
